Laboratory results taken from the supplement of paper PMC10126150.
± gives the standard deviation of the averaged measurements.

system: ATP; test: switch fluorescence ratio, 500 uM ATP over buffer (Cy3 cluster intensity, sum of 5 cycles each) (fold (ratio)); higher = stronger signal-on switching upon ATP binding; sequences stand for … in TCGTCGGCAGCGTCAGATGTGTATAAGAGACAGTTTTTTTTTTTTTTTTTTTTTTTTT…TC; conditions: aptamer strand: ATP DNA aptamer (quencher-CACCTGGGGGAGTATTGCGGAGGAAGG + anchor), 100 nM annealed; ATP concentration: 500 uM
Method in brief: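 Clusters carrying Cy3-labelled switching strands on a modified Illumina MiSeq flow-cell were annealed to 100 nM quencher-labelled ATP aptamer and imaged in selection buffer. They were imaged again after 15 min with 500 uM ATP at 22 °C, over five buffer/ATP cycles with NaOH stripping and re-annealing in between. For each cluster, the fluorescence ratio is the summed Cy3 intensity of the target cycles divided by that of the buffer cycles, averaged per switch-domain sequence. Clusters outside 100-1000 RFU were left out.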
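Also: ATP exposure 15 min at 22 °C before imaging.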

Row | Sequence | switch fluorescence ratio
1 | GTGCGCGGCC | 1.01 ± 0.051
2 | GTGCTCAGGG | 1.02 ± 0.077
3 | GTGGAAAGTA | 0.997 ± 0.011
4 | GTGGAAATCA | 1.01 ± 0.029
5 | GTGGAAATGG | 1.01 ± 0.022
6 | GTGGAACCTT | 1.24 ± 0.2
7 | GTGGAAGGCA | 0.9925 ± 0.0025
8 | GTGGAAGGGT | 1.02 ± 0.042
9 | GTGGAATTTT | 1.01 ± 0.0057
10 | GTGGACAAGG | 0.978 ± 0.031
11 | GTGGACATTA | 1.01 ± 0.012
12 | GTGGAGTAAG | 1.01 ± 0.023
13 | GTGGATACTA | 1.009 ± 0.0047
14 | GTGGATAGGT | 1.01 ± 0.045
15 | GTGGATATAG | 0.99333 ± 0.00046
16 | GTGGATTTGA | 1.01 ± 0.013
17 | GTGGCAACAA | 0.984 ± 0.035
18 | GTGGCCCCGG | 1.02 ± 0.043
19 | GTGGGAAAGT | 1.04 ± 0.015
20 | GTGGGAATGG | 0.9747 ± 0.0072
21 | GTGGGAGCGT | 0.97882 ± 0.00039
22 | GTGGGAGGGG | 1 ± 0.015
23 | GTGGGAGTTG | 0.969 ± 0.04
24 | GTGGGATTGG | 1.01 ± 0.027
25 | GTGGGATTTT | 0.986 ± 0.062

Row | Sequence | switch fluorescence ratio
26 | GTGGGCAGCG | 0.9666 ± 0.0047
27 | GTGGGCCAGC | 0.964 ± 0.082
28 | GTGGGCCTTT | 0.987 ± 0.015
29 | GTGGGCTGTT | 1.01 ± 0.06
30 | GTGGGGAAAA | 0.994 ± 0.035
31 | GTGGGGCGCA | 1.01 ± 0.026
32 | GTGGGGCGTG | 1 ± 0.03
33 | GTGGGGGATT | 0.996 ± 0.03
34 | GTGGGGGGAA | 0.98 ± 0.018
35 | GTGGGGGGAT | 0.999 ± 0.023
36 | GTGGGGGGCA | 0.991 ± 0.033
37 | GTGGGGGGGT | 0.992 ± 0.026
38 | GTGGGGGTAG | 0.99 ± 0.032
39 | GTGGGGTAAG | 0.987 ± 0.014
40 | GTGGGGTCGG | 0.979 ± 0.0057
41 | GTGGGGTGTG | 1.01 ± 0.021
42 | GTGGGGTTGG | 0.981 ± 0.021
43 | GTGGGTATGG | 1.002 ± 0.01
44 | GTGGGTATGT | 0.983 ± 0.017
45 | GTGGGTCGTA | 0.985 ± 0.046
46 | GTGGGTTATT | 0.999 ± 0.016
47 | GTGGGTTTGC | 1.03 ± 0.03
48 | GTGGTAAACG | 1 ± 0.029
49 | GTGGTACGGA | 1.0044 ± 0.00029
50 | GTGGTATATG | 0.997 ± 0.0073

Row | Sequence | switch fluorescence ratio
51 | GTGGTCAGGC | 0.975 ± 0.022
52 | GTGGTCAGGG | 0.9855 ± 0.0092
53 | GTGGTCGAGA | 0.986 ± 0.033
54 | GTGGTCGGTA | 0.952 ± 0.084
55 | GTGGTCTCCG | 0.982 ± 0.038
56 | GTGGTGAAGG | 0.99 ± 0.039
57 | GTGGTGAGGT | 0.966 ± 0.02
58 | GTGGTGCGGA | 0.943 ± 0.052
59 | GTGGTGGGAC | 0.972 ± 0.042
60 | GTGGTGGGGA | 1 ± 0.024
61 | GTGGTGGGGT | 1.01 ± 0.028
62 | GTGGTGGGTA | 0.947 ± 0.073
63 | GTGGTGTATC | 1.02 ± 0.019
64 | GTGGTGTCGT | 0.984 ± 0.016
65 | GTGGTGTGTT | 1.05 ± 0.14
66 | GTGGTGTTTT | 1 ± 0.015
67 | GTGGTTGGGG | 1.01 ± 0.028
68 | GTGGTTGGTA | 1.02 ± 0.03
69 | GTGGTTTCTG | 0.984 ± 0.1
70 | GTGGTTTTTT | 0.996 ± 0.022
71 | GTGTAAAGAC | 1.03 ± 0.053
72 | GTGTAAAGTG | 0.949 ± 0.047
73 | GTGTAAAGTT | 0.972 ± 0.021
74 | GTGTAAGATG | 1.0023 ± 0.0005
75 | GTGTAATGAG | 0.964 ± 0.014

Row | Sequence | switch fluorescence ratio
76 | GTGTACGGGG | 0.971 ± 0.026
77 | GTGTACGGGT | 0.991 ± 0.012
78 | GTGTAGGGGA | 1.0019 ± 0.00055
79 | GTGTATAGCA | 1.03 ± 0.014
80 | GTGTATATCG | 0.991 ± 0.012
81 | GTGTATCGTC | 0.9819 ± 0.0014
82 | GTGTATGAGA | 1.002 ± 0.0083
83 | GTGTCAATTT | 1.13 ± 0.17
84 | GTGTCATAGC | 0.975 ± 0.012
85 | GTGTCATTTA | 0.99 ± 0.035
86 | GTGTCCATTG | 0.998 ± 0.074
87 | GTGTCGGGGA | 1.01 ± 0.071
88 | GTGTCGGGGT | 1.002 ± 0.004
89 | GTGTCTAAAT | 0.989 ± 0.011
90 | GTGTCTACAT | 1.02 ± 0.014
91 | GTGTCTTGGA | 0.9893 ± 0.0052
92 | GTGTGAAAGC | 1.011 ± 0.0035
93 | GTGTGACACG | 1.04 ± 0.064
94 | GTGTGACCGT | 1.02 ± 0.024
95 | GTGTGCTAGT | 0.975 ± 0.02
96 | GTGTGGTGTT | 0.986 ± 0.016
97 | GTGTGTCAGT | 0.964 ± 0.013
98 | GTGTGTGGGA | 1 ± 0.026
99 | GTGTGTGGGC | 1.04 ± 0.061
100 | GTGTGTGGTC | 1 ± 0.021

Row | Sequence | switch fluorescence ratio
101 | GTGTGTTGTC | 1.01 ± 0.02
102 | GTGTTAAAGG | 0.992 ± 0.013
103 | GTGTTAATGA | 0.967 ± 0.019
104 | GTGTTAATGG | 0.998 ± 0.022
105 | GTGTTAGATC | 0.98 ± 0.017
106 | GTGTTAGGCG | 0.981 ± 0.018
107 | GTGTTATAGG | 1 ± 0.026
108 | GTGTTATATT | 1.004 ± 0.0089
109 | GTGTTCAGGG | 1.02 ± 0.021
110 | GTGTTCATGG | 1 ± 0.012
111 | GTGTTCGGCG | 1.07 ± 0.066
112 | GTGTTCTTGC | 0.9845 ± 0.0043
113 | GTGTTGGCTT | 0.995 ± 0.033
114 | GTGTTGTCGG | 1.01 ± 0.026
115 | GTGTTGTTCG | 0.995 ± 0.015
116 | GTGTTTAGTG | 0.9787 ± 0.0029
117 | GTGTTTCCGG | 1.01 ± 0.045
118 | GTGTTTGCTA | 1.02 ± 0.032
119 | GTGTTTTATT | 1.01 ± 0.036
120 | GTGTTTTCCT | 1.04 ± 0.017
121 | GTGTTTTCGG | 0.985 ± 0.016
122 | GTGTTTTGGC | 1.02 ± 0.029
123 | GTGTTTTTTG | 0.968 ± 0.019
124 | GTGTTTTTTT | 0.991 ± 0.023
125 | GTTAAAAACA | 1.03 ± 0.052

Row | Sequence | switch fluorescence ratio
126 | GTTAAAGGGT | 1.01 ± 0.0075
127 | GTTAACCCAT | 1.0083 ± 4.1e-05
128 | GTTAACGATA | 1.03 ± 0.038
129 | GTTAACGTTT | 0.982 ± 0.036
130 | GTTAACTCCA | 1.02 ± 0.022
131 | GTTAACTTTG | 1.0027 ± 0.00076
132 | GTTAAGTAGC | 0.971 ± 0.025
133 | GTTAAGTTTT | 0.985 ± 0.021
134 | GTTAATATAA | 0.9971 ± 0.003
135 | GTTAATGTAA | 0.9934 ± 0.0059
136 | GTTAATTGAT | 1 ± 0.027
137 | GTTAATTTAG | 0.987 ± 0.01
138 | GTTACAGTGG | 1 ± 0.061
139 | GTTACGAAAA | 1 ± 0.056
140 | GTTACGGGAC | 1.24 ± 0.015
141 | GTTACGGGGG | 1.02 ± 0.031
142 | GTTACTGGTG | 1.05 ± 0.027
143 | GTTACTGTGC | 1.08 ± 0.025
144 | GTTAGAAAAA | 1.03 ± 0.023
145 | GTTAGAAAAT | 1.01 ± 0.03
146 | GTTAGACTAT | 0.99057 ± 0.00092
147 | GTTAGAGAGC | 1.06 ± 0.0068
148 | GTTAGAGGGT | 1.01 ± 0.021
149 | GTTAGAGTCA | 1.01 ± 0.013
150 | GTTAGATGTT | 1 ± 0.011

Row | Sequence | switch fluorescence ratio
151 | GTTAGCATTG | 1 ± 0.029
152 | GTTAGCCGCT | 1.03 ± 0.014
153 | GTTAGGATGG | 1.01 ± 0.044
154 | GTTAGGGGAA | 1.02 ± 0.031
155 | GTTAGGGGGG | 0.979 ± 0.036
156 | GTTAGGGGTT | 0.996 ± 0.024
157 | GTTAGGTTGG | 0.9811 ± 0.007
158 | GTTAGTAGTG | 0.952 ± 0.022
159 | GTTAGTATAT | 1 ± 0.018
160 | GTTAGTCAAA | 0.991 ± 0.01
161 | GTTATAGCGT | 0.963 ± 0.026
162 | GTTATATGGA | 0.996 ± 0.018
163 | GTTATCAGTT | 0.99 ± 0.014
164 | GTTATCATTT | 0.989 ± 0.011
165 | GTTATCTAGC | 0.994 ± 0.017
166 | GTTATGGGGT | 1.01 ± 0.04
167 | GTTATTACGA | 1.005 ± 0.0041
168 | GTTATTATAG | 0.992 ± 0.005
169 | GTTATTATGC | 0.952 ± 0.035
170 | GTTATTGGTA | 1.01 ± 0.018
171 | GTTATTTACG | 1.02 ± 0.033
172 | GTTATTTATT | 0.995 ± 0.047
173 | GTTATTTGGG | 0.979 ± 0.035
174 | GTTATTTTAC | 1.01 ± 0.031
175 | GTTATTTTGT | 0.99 ± 0.019

Row | Sequence | switch fluorescence ratio
176 | GTTCAAGATA | 1 ± 0.036
177 | GTTCAGATTG | 1.03 ± 0.0048
178 | GTTCAGTTGC | 0.996 ± 0.033
179 | GTTCAGTTTG | 1.03 ± 0.031
180 | GTTCATAAAG | 0.98 ± 0.028
181 | GTTCCAGTTT | 1.039 ± 0.006
182 | GTTCCGCCGA | 1.23 ± 0.026
183 | GTTCCGGTTT | 1.01 ± 0.034
184 | GTTCCTATGA | 1.01 ± 0.043
185 | GTTCCTCATT | 1.45 ± 0.61
186 | GTTCGAAAAA | 0.961 ± 0.09
187 | GTTCGAAAGG | 1.022 ± 0.0095
188 | GTTCGAGAGC | 0.995 ± 0.057
189 | GTTCGGGATT | 0.981 ± 0.023
190 | GTTCGGGGGT | 0.986 ± 0.025
191 | GTTCTAGTGT | 0.972 ± 0.04
192 | GTTCTATATT | 0.986 ± 0.062
193 | GTTCTATCAG | 0.995 ± 0.09
194 | GTTCTCCTGA | 1.01 ± 0.014
195 | GTTCTGGGGT | 1 ± 0.016
196 | GTTCTTGATG | 0.967 ± 0.015
197 | GTTCTTGGAG | 0.9991 ± 0.0031
198 | GTTCTTGTAA | 1.017 ± 0.0088
199 | GTTGAAAATT | 0.99 ± 0.021
200 | GTTGAACGGT | 1.1 ± 0.053
